The source of these data is patent publication US20240377400A1, “METHODS FOR TREATING A SUBTYPE OF COLORECTAL CANCER” (Cornell University, priority 2021, published 2024).

The test system of assay [1] is Prkci^f/fPrkcz^f/f; Villin-Cre tumors. The assay can be described thus: Endogenous Prkci^f/fPrkcz^f/f; Villin-Cre tumors treated with PEGPH20: histology, tumor burden, Quant-seq. Format: in vivo, mouse. On the procedure: FIGS. 9E-9O illustrate Prkci^f/fPrkcz^f/f; Villin-Cre mice (mOle and female, 11-week-old) treated with Veh (n=10) or PEGPH20 (n=12), 0.0375 mg/kg for 3 weeks. Experimental design (E); IHC HA, Masson's trichrome, and αSMA(F); staining quantification (n=5) (G); macroscopic images of tumors (H); total tumor number, tumor size, and tumor load (I); quantification of cancer incidence (J); and sessile serrated lesions (SSL) and carcinoma quantification of tumors (K). Scale bars, 50 μm (F), 10 mm (H). The red arrow denotes tumors>5 mm (H). (L-N) GSEA of transcriptomic data from Quant-seq on PEGPH20-treated tumors versus Veh (n=3) using compilation H (MSigDB) (L), stroma-related signatures (M) and serrated-related signatures (N). (O) GSEA plots of the indicated gene signatures for PEGPH20-treated tumors versus Veh (n=3). Results are shown as mean±SEM *p<0.05, **p<0.01, ***p<0.001, ****p<0.0001. See also FIG. 16.
Animal handling and experimental procedures conformed to institutional guidelines and were approved by the Sanford-Burnham-Prebys Medical Discovery Institute Institutional Animal Care and Use Committee, and by the Weill Cornell Medicine Institutional Animal Care and Use Committee. Prkci^f/fPrkcz^f/f, Villin-Cre, Prkci^f/fPrkcz^f/f; Villin-Cre and Villin-CreERT2 mice were previously described (el Marjou et al., 2004; Madison et al., 2002; Nakanishi et al., 2018) Prkci^f/fPrkcz^f/f; Villin-CreERT2 mice were generated by breeding Prkci^f/fPrkcz^f/f mice with Villin-CreERT2 (Jackson Laboratory, stock number 020282) mice. All mouse strains were generated in a C57BL/6 background and were born and maintained under pathogen-free conditions. For PEGPH20 treatment, 11-week-old Prkci^f/fPrkcz^f/f; Villin-Cre were retro-orbitally injected twice a week for 3 weeks with a dose of 0.0375 mg/kg of PEGPH20 (Halozyme Therapeutics), until they were sacrificed. Control mice were treated with vehicle. For xenograft experiments, 6-7 week-old male C57BL/6 were purchased from Charles River Labs (Wilmington, MA, USA). All mice were maintained on food and water ad libitum and were age-matched and co-housed for all experiments. Mice were sacrificed and small intestine, colon, tumors or other organs were collected for analysis. All genotyping was done by PCR. Age- and sex-matched mice were used for all experiments
Tissues from indicated mice were isolated, rinsed in ice-cold PBS, fixed in 10% neutral buffered formalin overnight at 4° C., dehydrated, and embedded in paraffin. Sections (5 μm) were stained with hematoxylin and eosin (H&E). For immunohistochemistry, sections were deparaffinized, rehydrated, and then treated for antigen retrieval. After blocking in Protein Block Serum-Free solutions (DAKO), tissues were incubated with primary antibody overnight at 4° C. followed by incubation with biotinylated secondary antibody. Endogenous peroxidase was quenched in 3% H2O2 in water for 10 minutes at room temperature. Antibodies were visualized with avidin-biotin complex (Vectastain Elite; Vector Laboratories) using diaminobenzidine as the chromogen. Stained sections were analyzed with a Zeiss light microscope supplemented with Zen 3.3 Bule edition software. For immunofluorescence, the signal was visualized using the OPAL™ 4-Color Manual IHC Kit (Akoya Biosciences, MA), which allows simultaneous detection of multiple targets in the same image. Fluorophores Opal 520, Opal 570, and TSA Plus Cyanine 5 were used, and the sections were counterstained with Spectral DAPI.
Total RNA was extracted using Quick-RNA MiniPrep kit (Zymo Research). Libraries were prepared from 200 ng of total RNA using the QuantSeq 3′ mRNA-Seq Library Prep Kit FWD for Illumina from Lexogen, and optional UMIs (Vienna, Austria). Barcoded libraries were pooled, and single end sequenced (1×75) on the Illumina NextSeq 500 using the High output V2.5 kit (Illumina Inc., San Diego CA).
For 3′RNA-Seq, read data was processed with the BlueBee Genomics Platform (BlueBee, San Mateo, CA). […]

The test system of assay [2] is MTO-sgPrkci/sgPrkcz. In words: PEGPH20 treatment in vitro of mouse tumor organoids, qPCR. Format: cell-based. Conditions: PEGPH20 2.5 μg/ml every other day for 6 days. The source says: To perform PRKCI and PRKCZ editing in PDOs, single-guide RNA sequences targeting PRKCI and PRKCZ (Table 3), were purchased from Synthego and transduced into PDOs with recombinant Streptococcus pyogenes Cas9 protein (Truecut Cas9 Protein v2, Thermo. To knock out Prkcz in mouse sgPrcki MTOs (Linares et al., 2021), single-guide RNA sequence targeting Prkcz (Table 3) was purchased from Synthego and transduced into sgPrcki MTOs as described above. PRKCI, PRKCZ, and Prkcz were knocked out using the Neon Transfection System 1 (Invitrogen) following the manufacturer's protocol and single clones were expanded and screened by protein immunoblotting. For the deletion of Prkci and Prkcz in normal organoids, 500 nM 4-OH-tamoxifen was added the second day after organoids were passaged. […]
Total RNA from cultured organoids was extracted using TRIZOL reagent (Invitrogen) and purified by the RNeasy Mini Kit (QIAGEN), followed by DNase treatment. After quantification using a Nanodrop 1000 spectrophotometer (Thermo Scientific), RNA was either processed for RNA-seq or reverse-transcribed using random primers and MultiScribe Reverse Transcriptase (Applied Biosystems). Gene expression was analyzed by amplifying 500 ng of the complementary DNA using the CFX96 Real Time PCR Detection System with SYBR Green Master Mix (BioRad) and primers described in Table 2. […]
A general note: Quantitative PCR measures a nucleic acid by following its amplification.

[3] abbreviates: small intestine, PEGPH20 0.0375 mg/kg, 3 weeks.

B1: PEGPH20: a PEGylated version of human recombinant PH20 hyaluronidase; clinical-grade pegylated hyaluronidase (Halozyme Therapeutics) (protein, UniProt P38567 36-490, looked up)
Hyaluronidase PH-20: LNFRAPPVIPNVPFLWAWNAPSEFCLGKFDEPLDMSLFSFIGSPRINATGQGVTIFYVDRLGYYPYIDSITGVTVNGGIPQKISLQDHLDKAKKDITFYMPVDNLGMAVIDWEEWRPTWARNWKPKDVYKNRSIELVQQQNVQLSLTEATEKAKQEFEKAGKDFLVETIKLGKLLRPNHLWGYYLFPDCYNHHYKKPGYNGSCFNVEIKRNDDLSWLWNESTALYPSIYLNTQQSPVAATLYVRNRVREAIRVSKIPDAKSPLPVFAYTRIVFTDQVLKFLSQDELVYTFGETVALGASGIVIWGTLSIMRSMKSCLLLDNYMETILNPYIINVTLAAKMCSQVLCQEQGVCIRKNWNSSDYLHLNPDNFAIQLEKGGKFTVRGKPTLEDLEQFSEKFYCSCYSTLSCKEKADVKDTDAVDVCIADGVCIDAFLKPPMETEEPQIFYNASPSTLS
modifications: PEGylated
Regarding B1, the “signatures related to invasion and tumor progression (EMT, myogenesis, angiogenesis, TGFβ signaling), stromal activation, serrated tumorigenesis and the CMS4 subtype” value in assay [1] (GSEA of Quant-seq, treated versus Veh) is “decrease”. Moreover, the “IFN and allograft rejection signatures” value in assay [1] (GSEA of RNAseq, endogenous tumors) is listed as “enrichment”. Also, the “stromal HA accumulation” value in assay [1] (PEGPH20 0.0375 mg/kg twice a week, 3 weeks, IHC) was “eliminated”. For the same molecule, in assay [1] (PEGPH20 0.0375 mg/kg, 3 weeks), the “cancer incidence in the small intestine” value is on record as “lower”, the invasive carcinomas result was “reduced” and the “sessile serrated lesions (SSL)” value was “fewer”. For the same molecule, the “collagen deposition and αSMA expression” value in assay [1] (PEGPH20 0.0375 mg/kg, 3 weeks, Masson's trichrome, IHC) is recorded as “reduced”. Moreover, the “intestinal and colon tumors” value in assay [1] (figure legend title, FIGS. 16A-16E) is “reduces”. The colon tumorigenesis result in assay [1] (proximal colon tumors) was “reduced”. Further, in assay [1] (setting [3]), the average tumor size result is reported as “significant reduction”, the tumor load result was “significant reduction” and the tumor number entry is reported as “significant reduction”. In assay [2], the Anxa10 expression result is “reduced” and the Clu levels entry was “without changes”.
